The supplement of paper PMC7877785
± gives the uncertainty stated by the source.

Assay: self-splicing fitness, log relative to wild type (ln ratio); higher = more splicing; Tetrahymena group I intron in knt gene, E. coli kanamycin selection, DiMSum; sequences stand for … in CUCUCU…GGAGGGAAAAGUUAUCAGGCAUGCACCUGGUAGCUAGUCUUUAAACCAAUAGAUUGCAUCGGUUUAAAAGGCAAGACCGUCAAAUUGCGGGAAAGGGGUCAACAGCCGUUCAGUACCAAGUCUCAGGGGAAACUUUGAGAUGGCCUUGCAAAGGGUAUGGUAAUAAGCUGACGGACAUGGUCCUAACCACGCAGCCAAGUCCUAAGUCAACAGAUCUUCUGUUGAUAUGGAUGCAGUUCACAGACUAAAUGUCGGUCGGGGAAGAUGUAUUCUUCUCAUAAGAUAUAGUCGGACCUCUCCUUAAUGGGAGCUAGCGGAUGAAGUGAUGCAACACUGGAGCCGCUGGGAACUAAUUUGUAUGCGAAAGUAUAUUGAUUAGUUUUGGAGUACUCGUGGUCG
Summary of the method: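 Fitness was computed with DiMSum as the error-weighted combination of replicate fold changes, kanamycin versus none, each normalised to wild type. The library randomised all eight intron nucleotides of the P1ex region, with the intron placed in the knt kanamycin-resistance gene on pET-22b(+) in E. coli BL21(DE3). Six replicate transformations were grown overnight at 37°C or 30°C on LB agar with or without 25 μg/mL kanamycin, plus 100 μg/mL carbenicillin, 50 μM IPTG and 0.2% rhamnose. Pooled colonies were amplicon-sequenced on an Illumina HiSeq 2500.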

Sequence | self-splicing fitness (ln) (30 °C) | self-splicing fitness (ln) (37 °C)
AAAAAGCAAUAUUACGAAUG | -1.48 ± 0.091 | -0.947 ± 0.12
UCCAAGCAAUAUUACGCUCA | -1.03 ± 0.11 | -0.393 ± 0.13
CCCUAGCAAUAUUACGGCCA | -2.88 ± 0.39 | -2.19 ± 0.26
UAUGAGCAAUAUUACGCCGA | -2.04 ± 0.34 | -1.73 ± 0.26
GUAAAGCAAUAUUACGACAU | 0.272 ± 0.012 | 0.348 ± 0.032
CGAAAGCAAUAUUACGGAUC | -2.95 ± 0.16 | -2.02 ± 0.15
GCCUAGCAAUAUUACGCAAA | -0.846 ± 0.14 | -1.41 ± 0.16
AGUAAGCAAUAUUACGAUUU | -0.313 ± 0.1 | -0.0587 ± 0.13
CAUGAGCAAUAUUACGUUAG | -1.86 ± 0.081 | -1.11 ± 0.082
UUGAAGCAAUAUUACGGCAU | -0.14 ± 0.06 | 1.08 ± 0.08
GAAAAGCAAUAUUACGUGUA | -2.58 ± 0.11 | -0.56 ± 0.085
AGUGAGCAAUAUUACGAUGC | -2.29 ± 0.28 | -3.16 ± 0.43
GCAAAGCAAUAUUACGGUUG | -2.86 ± 0.13 | -2.04 ± 0.16
GCUUAGCAAUAUUACGUUUA | -1.73 ± 0.13 | -1.17 ± 0.12
ACCUAGCAAUAUUACGCUGC | -2.42 ± 0.12 | -1.06 ± 0.13
CCUCAGCAAUAUUACGACCG | -0.986 ± 0.093 | -0.493 ± 0.095
UGCCAGCAAUAUUACGGAUG | -1.21 ± 0.093 | -0.248 ± 0.12
UGGAAGCAAUAUUACGACGA | 0.0371 ± 0.18 | -0.862 ± 0.15
GUCUAGCAAUAUUACGGUUC | -0.596 ± 0.089 | 0.433 ± 0.096
CACGAGCAAUAUUACGCCUA |  | -2.24 ± 0.45
GUCCAGCAAUAUUACGAAAC | -0.222 ± 0.15 | -0.568 ± 0.2
UUCGAGCAAUAUUACGAUGA | -0.824 ± 0.12 | -0.0637 ± 0.1
CCUUAGCAAUAUUACGGCUC | -3.72 ± 0.21 | -3.45 ± 0.39
GGUCAGCAAUAUUACGCACU | -2.12 ± 0.27 | -0.976 ± 0.24
UUCUAGCAAUAUUACGGCUC | -1.38 ± 0.14 | -0.913 ± 0.2
AAUAAGCAAUAUUACGCGGA | -2.57 ± 0.22 | -1.33 ± 0.19

Sequence | self-splicing fitness (ln) (30 °C) | self-splicing fitness (ln) (37 °C)
ACCAAGCAAUAUUACGAGGU | -3.76 ± 0.21 | -2.22 ± 0.18
CAUUAGCAAUAUUACGUUAG | -0.927 ± 0.092 | -0.609 ± 0.1
AGUAAGCAAUAUUACGAUUG | -2.97 ± 0.29 | -2.54 ± 0.29
CUCCAGCAAUAUUACGCGCC | -2.7 ± 0.29 | -2.05 ± 0.38
CAUAAGCAAUAUUACGUAUC | -2.78 ± 0.2 | -2.72 ± 0.25
GUCUAGCAAUAUUACGCGCU | -1.29 ± 0.19 | -0.353 ± 0.15
ACCGAGCAAUAUUACGGUGA | -3.07 ± 0.18 | -1.48 ± 0.13
GUUAAGCAAUAUUACGAAAG | -1.91 ± 0.14 | -1.5 ± 0.22
CAUCAGCAAUAUUACGGAAU | -2.46 ± 0.12 | -2.11 ± 0.11
UCUAAGCAAUAUUACGAUAA | -1.46 ± 0.17 | -0.693 ± 0.2
GGGCAGCAAUAUUACGUCCG | -0.61 ± 0.091 | -0.058 ± 0.14
UCAUAGCAAUAUUACGGGAC | -2.96 ± 0.27 | -3.97 ± 0.39
AGGUAGCAAUAUUACGCUAU | -3.873 ± 0.037 | -3.13 ± 0.047
AGAGAGCAAUAUUACGUGCG | -1.98 ± 0.16 | -1.79 ± 0.26
CGGGAGCAAUAUUACGCAAU | -3.15 ± 0.39 | 
GGCGAGCAAUAUUACGAGCG | -0.88 ± 0.14 | -0.433 ± 0.17
CGUUAGCAAUAUUACGAAAC |  | -1.84 ± 0.37
ACACAGCAAUAUUACGAAGU | -3.43 ± 0.14 | -2.21 ± 0.15
UUUCAGCAAUAUUACGCGAU | -3.39 ± 0.15 | -2.47 ± 0.16
CAACAGCAAUAUUACGUGGA | -3.08 ± 0.13 | -2.08 ± 0.096
GACAAGCAAUAUUACGCUGC | -3.6 ± 0.16 | -2.87 ± 0.19
UAUCAGCAAUAUUACGACUU | -0.502 ± 0.067 | -0.0466 ± 0.074
UUCUAGCAAUAUUACGAAAG |  | -2.87 ± 0.32
CAUUAGCAAUAUUACGUUUC | -2.39 ± 0.33 | -2.2 ± 0.32
GCCUAGCAAUAUUACGGCGC | -0.67 ± 0.14 | 0.263 ± 0.18
GAUAAGCAAUAUUACGAGUG | -1.04 ± 0.074 | -0.835 ± 0.066

Sequence | self-splicing fitness (ln) (30 °C) | self-splicing fitness (ln) (37 °C)
ACGCAGCAAUAUUACGUUAC | -3.14 ± 0.15 | -3.27 ± 0.23
UCAUAGCAAUAUUACGUAGG | -1.08 ± 0.074 | -1.56 ± 0.096
AUAAAGCAAUAUUACGGCCG | -0.128 ± 0.1 | 0.3 ± 0.16
GAUAAGCAAUAUUACGUCUC | -1.74 ± 0.085 | -0.95 ± 0.1
CGCUAGCAAUAUUACGGCGG | -1.68 ± 0.089 | -0.662 ± 0.11
UAAGAGCAAUAUUACGAGUG | -3.74 ± 0.23 | -1.16 ± 0.22
AGCCAGCAAUAUUACGUGAA | -3.14 ± 0.091 | -1.81 ± 0.1
ACGGAGCAAUAUUACGUCAA | -2.71 ± 0.39 | -2.94 ± 0.36
AUACAGCAAUAUUACGCAGC | -4.34 ± 0.45 | -1.87 ± 0.19
UAACAGCAAUAUUACGCGCA | -0.471 ± 0.078 | 0.0314 ± 0.12
AUUGAGCAAUAUUACGCGGC | -3.26 ± 0.38 | 
GGUUAGCAAUAUUACGGUGC | -1.07 ± 0.088 | -0.186 ± 0.12
UUUGAGCAAUAUUACGCGGU | -2.67 ± 0.28 | -2.37 ± 0.35
CUACAGCAAUAUUACGACUU | -3.83 ± 0.32 | -2.81 ± 0.35
AGUUAGCAAUAUUACGUCAU | -2.48 ± 0.1 | -1.81 ± 0.13
UGCUAGCAAUAUUACGAUCA | 0.384 ± 0.07 | 0.522 ± 0.094
AAAUAGCAAUAUUACGUUCU | -0.419 ± 0.069 | -0.584 ± 0.091
CGAUAGCAAUAUUACGAAAC | -1.44 ± 0.32 | 
GCCAAGCAAUAUUACGCCGU | -2.07 ± 0.087 | -1.45 ± 0.12
CAUCAGCAAUAUUACGCUCU | -3.31 ± 0.19 | -1.66 ± 0.17
AGACAGCAAUAUUACGCGGC | -3.51 ± 0.24 | -2.15 ± 0.21
UUCGAGCAAUAUUACGCCGG | -1.98 ± 0.39 | 
UCCGAGCAAUAUUACGGCCU | -3.24 ± 0.3 | -2.33 ± 0.38
AUUCAGCAAUAUUACGGGUU | -2.8 ± 0.17 | -1.75 ± 0.16
ACGCAGCAAUAUUACGAUGA | -1.1 ± 0.064 | -0.521 ± 0.068
